Experimental data reported in patent US20230050380A1 (CHIOME BIOSCIENCE, published 2023).

How the values were obtained:
[1] = biological target: T1, crab-eating macaque CDCP1 with N-terminal c-Myc tag (expression vector GS02), on crab-eating macaque … (crab-eating macaque (Macaca …, UniProt Q9H5V8 30-836 (human entry))); assay: flow cytometry on crab-eating macaque CDCP1-expressing CHO-K1 cells
T1 chain: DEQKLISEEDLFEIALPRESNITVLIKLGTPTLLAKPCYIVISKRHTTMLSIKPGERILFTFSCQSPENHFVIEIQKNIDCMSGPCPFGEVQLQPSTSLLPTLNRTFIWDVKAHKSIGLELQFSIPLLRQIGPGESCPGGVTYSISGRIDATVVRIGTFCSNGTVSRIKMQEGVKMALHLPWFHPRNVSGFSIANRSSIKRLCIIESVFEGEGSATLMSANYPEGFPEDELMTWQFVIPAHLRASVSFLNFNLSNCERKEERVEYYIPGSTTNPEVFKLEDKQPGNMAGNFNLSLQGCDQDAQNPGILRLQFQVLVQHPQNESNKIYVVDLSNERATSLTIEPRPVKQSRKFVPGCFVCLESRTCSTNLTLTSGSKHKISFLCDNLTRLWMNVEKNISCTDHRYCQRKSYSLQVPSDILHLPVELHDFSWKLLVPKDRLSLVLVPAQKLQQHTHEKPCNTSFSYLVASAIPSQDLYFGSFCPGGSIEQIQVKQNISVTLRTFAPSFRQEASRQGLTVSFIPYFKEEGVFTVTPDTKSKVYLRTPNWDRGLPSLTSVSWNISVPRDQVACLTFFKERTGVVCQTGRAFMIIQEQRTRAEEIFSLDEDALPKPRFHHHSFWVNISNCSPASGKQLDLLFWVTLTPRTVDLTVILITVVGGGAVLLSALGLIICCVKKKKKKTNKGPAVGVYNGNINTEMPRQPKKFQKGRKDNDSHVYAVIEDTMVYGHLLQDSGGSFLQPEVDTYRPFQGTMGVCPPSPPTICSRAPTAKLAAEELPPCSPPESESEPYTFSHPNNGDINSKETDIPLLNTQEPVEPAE
Source text: The hCDCP1-expressing CHO-K1 cells and the crab-eating macaque CDCP1-expressing CHO-K1 cells were exfoliated and dispersed using 0.25% trypsin/EDTA (Nacalai Tesque, Inc.), and were then reacted with various concentrations of individual mouse-human chimeric antibodies, namely, mh12A041HCori/LCori, mh14A025HCori/LCori, mh14A043HCori/LCori, mh14A055, mh14A063HCori/LCori, and mh14A091. Thereafter, the binding property of the antibodies was observed by flow cytometry (FIG. 9). As a result, these 6 antibodies all reacted with the crab-eating macaque CDCP1, and in particular, the 5 antibodies other than mh14A055 reacted with both the human CDCP1 and the crab-eating macaque CDCP1 at the same levels.

[2] = biological target: T2, full-length hCDCP1 with N-terminal c-Myc tag (expression vector GS01), on Ba/F3-hCDCP1 cells or … (human, UniProt Q9H5V8 30-836); assay: flow cytometry on untreated Ba/F3-hCDCP1 cells (comparison of FIG. 8)
T2 construct: also called human CDCP1; hCDCP1 forced expression cells
T2 sequence: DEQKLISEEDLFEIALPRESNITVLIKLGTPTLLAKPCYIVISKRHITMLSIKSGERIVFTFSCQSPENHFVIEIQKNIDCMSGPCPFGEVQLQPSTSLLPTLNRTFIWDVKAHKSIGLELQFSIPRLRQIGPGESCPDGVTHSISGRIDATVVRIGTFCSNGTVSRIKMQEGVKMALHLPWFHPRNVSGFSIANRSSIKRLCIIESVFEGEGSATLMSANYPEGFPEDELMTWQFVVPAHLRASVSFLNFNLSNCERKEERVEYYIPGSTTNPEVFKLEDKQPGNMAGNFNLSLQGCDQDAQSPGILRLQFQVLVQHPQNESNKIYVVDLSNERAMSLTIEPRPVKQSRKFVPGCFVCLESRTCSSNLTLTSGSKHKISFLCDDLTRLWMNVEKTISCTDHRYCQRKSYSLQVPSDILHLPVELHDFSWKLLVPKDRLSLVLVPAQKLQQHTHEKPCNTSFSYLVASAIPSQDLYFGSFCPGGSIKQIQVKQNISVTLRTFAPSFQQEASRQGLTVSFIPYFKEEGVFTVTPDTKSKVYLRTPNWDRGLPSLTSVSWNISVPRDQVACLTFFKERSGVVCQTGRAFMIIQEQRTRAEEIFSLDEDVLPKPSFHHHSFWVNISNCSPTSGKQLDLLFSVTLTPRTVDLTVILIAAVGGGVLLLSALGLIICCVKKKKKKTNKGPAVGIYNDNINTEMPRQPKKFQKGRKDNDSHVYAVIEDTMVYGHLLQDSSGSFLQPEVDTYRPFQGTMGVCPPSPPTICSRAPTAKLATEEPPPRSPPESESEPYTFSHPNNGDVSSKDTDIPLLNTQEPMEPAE
Procedure: In order to investigate whether the obtained anti-hCDCP1 mouse-human chimeric antibodies bind to the N-terminal side of the serine protease cleavage site of the hCDCP1 molecules or bind to the transmembrane region side, […] the technique mentioned in the previous section. The following anti-hCDCP1 mouse-human chimeric antibody clones were evaluated: [0259] mh12A041HCori/LCori, mh14A025HCori/LCori, mh14A043HCori/LCori, mh14A055, mh14A063HCori/LCori, and mh14A091.
[…] It was confirmed by the same Western blotting as that mentioned in the previous section that the full-length hCDCP1 disappeared and only the cleaved hCDCP1 was present in the above-treated Ba/F3-CDCP1 cells. With respect to these cells, a dilution series of anti-hCDCP1 mouse-human chimeric antibodies from 5 μg/mL to 5 ng/mL was prepared, and was then reacted at 4° C. for 30 minutes. As a negative control, a similar dilution series of anti-RS virus antibodies described in the later section was prepared as a non-specific human IgG, and was then reacted at 4° C. for 30 minutes.

binding result [1]: binds
binding result [2]: binds
B1: mh14A091 (antibody, human IgG1, kappa, V domains shown)
VH: EVQLQESGAELARPGASVKLSCKASGYTFTSYWMQWVKQRPGQGLEWIGAIYPGDGDTRYTQKFKGKATLTADKSSSTAYMQLSSLASEDSAVYYCAGYDAPWFAYWGQGTLVTVSS
VL: NIVLTQSPASLAVSLGQRATISCRASESVDSYGNSFMHWYQQKPGQPPKLLIYLASNLESGVPARFSGSGSRTDFTLTIDPVEADDAATYYCQQNNEDPWTFGGGTKLEIKR
notes: mouse-human chimeric antibody of 14A091, human IgG1/kappa constant regions
